Residue numbers refer to the chain shown, from its start. Names and notes keep the numbering of the source. “Also recorded” adds a separate entry of the source. Where two headings read alike, the source gives them in different places.
B1: Q25K: LTC4 synthase point mutant (protein, UniProt Q16873 1-150, looked up, variant Q25K)
Leukotriene C4 synthase: MKDEVALLAAVTLLGVLLQAYFSLKVISARRAFRVSPPLTTGPPEFERVYRAQVNCSEYFPLFLATLWVAGIFFHEGAAALCGLVYLFARLRYFQGYARSAQLRLAPLYASARALWLLVALAALGLLAHFLPAALRAALLGRLRTLLPWA
B2: R51I/WT: recombinant pseudo-heterodimer of R51I LTC4 synthase monomer and wild-type monomer (protein, UniProt Q16873 1-150, looked up, variant R51I)
Leukotriene C4 synthase: B1 Leukotriene C4 synthase with K25Q, R51I
modifications: heterodimer with wild-type monomer
B3: deletion of the charged amino acids K2 and D3 at the amino terminus: LTC4 synthase deletion mutant (protein, UniProt Q16873 1-150, looked up, variant K2* D3*)
Leukotriene C4 synthase: MEVALLAAVTLLGVLLQAYFSLQVISARRAFRVSPPLTTGPPEFERVYRAQVNCSEYFPLFLATLWVAGIFFHEGAAALCGLVYLFARLRYFQGYARSAQLRLAPLYASARALWLLVALAALGLLAHFLPAALRAALLGRLRTLLPWA

Tested on: LTC4 synthase
Assay: Conjugation of LTA4-ME with GSH by solubilized microsomes of COS cells transfected with wild-type or mutant LTC4 synthase
Details: for Function / effect on Km of GSH / Km: COS cell microsome; for conjugation function of transfected COS cell microsomes: compared to wild-type construct
Experimental: OF THE EXPRESSED PROTEINS: COS-7 cells were transfected with either wild-type LTC4 synthase cDNA or the mutated LTC4 synthase cDNA by DEAE-dextran transfection (Lam et al., Proc. Natl. Acad. Sci. USA., 91:7663, 1994). Three days after transfection, the cells were harvested by treatment with trypsin and suspended in microsomal buffer (50 mM HEPES buffer pH 7.9 containing 2 mM EDTA and 10 mM β-mercaptoethanol) at a concentration of 5×10^6 cells/ml. The cells were lysed by sonication with a Branson microtip sonicator (Danbury, Conn.) at a setting of 7. Cell lysates were centrifuged at 100,000×g for 60 min at 4° C., and the pellets (microsomes) were resuspended in microsomal buffer and were solubilized by the addition of 0.4% Triton X-102, 0.4% sodium deoxycholate (DOC), and 10% glycerol and stirring at 4° C. for 45 min.
The function of each mutant enzyme as well as the wild-type enzyme was first screened by the incubation of 1-10 μl of solubilized COS cell microsomes with 10 mM GSH and 20 μM LTA4-ME in 200 μl 50 mM HEPES buffer containing 10 mM MgCl2, pH 7.6. The reactions were carried out at room temperature for 10 min and stopped by the addition of 3 vol methanol containing 200 ng prostaglandin B2 (PGB2) as an internal standard. LTC4-ME levels in the samples were determined with high performance liquid chromatography (HPLC).
Reverse phase (RP)-HPLC was carried out with a model 126 dual pump system and model 167 scanning UV detector (Beckman Instruments) controlled by an Gateway 2000 P4D66 computer equipped with Beckman System Gold software. Samples were applied to a 5-μm 4.6×250-mm C18 Ultrasphere reverse phase column (Beckman Instruments) equilibrated with a solvent of methanol/acetonitrile/water/acetic acid (10:15:100:0.2, v/v), pH 6.0 (solvent A). Immediately after the sample was injected, the column was eluted at a flow rate of 1 ml/min with a programmed concave gradient (System Cold curve 6) to 20% solvent A and 80% solvent B (pure methanol) over 0.2 min with continuation isocratically for 5.8 min. Beginning at 6 min, solvent B was increased linearly to 100% over 0.2 min and was maintained at this level for 7 min more. The ultraviolet absorbance at 280 nm and the ultraviolet spectra were recorded simultaneously. The retention times for PGB2 and LTC4-ME were 7.4 and 8.9 min, respectively. LTC4-ME was quantitated by calculating the ratio of the peak area to the area of the internal standard PGB2.

| Molecule | Function | Km (read-out: Km GSH) | Km (read-out: Km LTA4-ME) | conjugation function of transfected COS cell microsomes | further results |
| --- | --- | --- | --- | --- | --- |
| A52S: LTC4 synthase point mutant | 80 % of WT | 30000 µM | 4.5 µM |  | effect on Km of GSH: did exhibit an increase in Km for GSH |
| C56S: LTC4 synthase point mutant |  |  |  | do not affect conjugation function | conjugation function of transfected COS cell microsomes (listed as C56 to S56): None of the mutations affected conjugation function |
| E45Q: LTC4 synthase point mutant |  |  |  | did not attenuate the conjugation function; also recorded: did not affect the function |  |
| E47Q: LTC4 synthase point mutant |  |  |  | did not attenuate the conjugation function; also recorded: did not affect the function |  |
| E58Q: LTC4 synthase point mutant |  |  |  | did not attenuate the conjugation function |  |
| E76Q: LTC4 synthase point mutant |  |  |  | did not affect the function |  |
| F46Y: LTC4 synthase point mutant |  |  |  | did not affect the function |  |
| F60Y: LTC4 synthase point mutant |  |  |  | did not affect the function |  |
| H75Q: LTC4 synthase point mutant |  |  |  | did not affect the function |  |
| L39F: LTC4 synthase point mutant |  |  |  | did not affect the function |  |
| L62T: LTC4 synthase point mutant | 100 % of WT | 2500 µM | 6.7 µM | did not affect the function |  |
| N55A: LTC4 synthase point mutant of the consensus N-glycosylation site | 85 % of WT | 10700 µM | 7.7 µM |  | effect on Km of GSH: increase the Km of GSH |
| Q53N: LTC4 synthase point mutant |  |  |  | did not affect the function |  |
| R48S: LTC4 synthase point mutant |  |  |  | did not attenuate the conjugation function; also recorded: did not affect the function |  |
| R51I: LTC4 synthase point mutant |  |  |  | do not show conjugation activity | conjugation function of transfected COS cell microsomes (listed as Arg 51 to isoleucine): abolished the functional activity |
| R51K: LTC4 synthase point mutant | 100 % of WT | 2300 µM | 9.4 µM | activity was not diminished |  |
| R92S: LTC4 synthase point mutant |  |  |  | did not affect the function |  |

| Molecule | Function | Km (read-out: Km GSH) | Km (read-out: Km LTA4-ME) | conjugation function of transfected COS cell microsomes | further results |
| --- | --- | --- | --- | --- | --- |
| R99S: LTC4 synthase point mutant |  |  |  | did not affect the function |  |
| R104S: LTC4 synthase point mutant |  |  |  | did not affect the function |  |
| S100V: LTC4 synthase point mutant |  |  |  | did not affect the function |  |
| S111V: LTC4 synthase point mutant |  |  |  | did not affect the function |  |
| T66V: LTC4 synthase point mutant |  |  |  | did not affect the function |  |
| V49F: LTC4 synthase point mutant | 100 % of WT | 9200 µM | 10 µM |  |  |
| V54Q: LTC4 synthase point mutant |  |  |  | did not affect the function |  |
| V69S: LTC4 synthase point mutant |  |  |  | did not affect the function |  |
| V69T: LTC4 synthase point mutant | 100 % of WT | 2000 µM | 19 µM |  |  |
| Y50F: LTC4 synthase point mutant |  |  |  | did not affect the function |  |
| Y59F: LTC4 synthase point mutant | 100 % of WT | 15500 µM | 19 µM |  |  |
| Y97F: LTC4 synthase point mutant | 100 % of WT | 16500 µM | 16.5 µM |  |  |
| Y109I: LTC4 synthase point mutant | 100 % of WT | 1600 µM | 20 µM | did not affect the function |  |
| B1 |  |  |  | did not affect the function |  |
| B2 | 90 % of WT | 3200 µM | 6.5 µM | retained enzymatic function |  |
| B3 |  |  |  | Neither the deletion of the charged amino acids K2 and D3 at the amino terminus nor the deletion of the 14 amino acids at the carboxyl terminus altered the function |  |
